Experiment [1] addresses T1, biotinylated extracellular domains of human CD33 (Speed BioSystems, cat #YCP2045) (human, UniProt P20138 18-259, biotinylated).
T1 construct: extracellular domain
Description: SPR (ProteOn), biotinylated target on chip. Here is the method:
(§1) Briefly, biotinylated human scCD3εγ was diluted in PBST (PBS, pH 7.4 containing 0.005% Tween 200) and coated on a NLC chip (BioRad) to a level of around 700-1400 resonance units (RU). The interaction of ankyrin repeat protein and human CD3 was then measured by injecting 300 μl running buffer (PBS, pH 7.4 containing 0.005% Tween 200) containing serial dilutions of ankyrin repeat proteins covering a concentration range between 64 nM and 4 nM for multi-trace SPR measurements, followed by a running buffer flow for at least 10 minutes at a constant flow rate of 60 μl/min (off-rate measurement). The regeneration was performed using 30 μl of 10 mM Glycine pH 2. The signals (i.e. resonance unit (RU) values) of the interspots and a reference injection (i.e. injection of running buffer only) were subtracted from the RU traces obtained after injection of ankyrin repeat protein (double-referencing). While binding was too weak for DARPin® protein #7, binding parameters (KD, on-rate, off-rate) against CD3 were determined for affinity matured constructs. On-rates (kₒₙ) and dissociation constants (KD) are given only as approximation because binding equilibrium was not appropriately reached even at highest samples concentration, leading to non-optimal fits for on-rates.
(§2) The binding affinities of two purified ankyrin repeat proteins on recombinant human CD33 and CD123 target respectively were analyzed using a ProteOn instrument (BioRad) and the measurement was performed according standard procedures known to the person skilled in the art. For that, DARPin® protein #25 (with binding specificity for CD33 and CD3), DARPin® protein #26 (with binding specificity for CD123 and […]) of the invention were subcloned and expressed as described above into derivatives of the pQE30 (Qiagen) expression vector, containing an N-terminal His-tag, CD33 or CD123 binding ankyrin repeat domains respectively, followed by one of the four CD3 specific ankyrin repeat protein constructs. The following steps were performed as described in A above. Briefly, biotinylated extracellular domains of human CD33 (provided by Speed BioSystems, Lot no cat #YCP2045) as target protein was used for the assessment of DARPin® protein #25 and biotinylated extracellular domains of human (uniprot ID 26951) for the assessment of DARPin® protein #26 accordingly.

Experiment [2] concerns the target T2, human scCD3εγ (scCD3εγ_Avi-Bio) (human, biotin on the C-terminal Avi-tag (in vitro, BirA) where the biotinylated form was used).
T2 construct: Used for all SPR and HTRF results on human CD3; also called recombinant human CD3; human CD3
T2 chain: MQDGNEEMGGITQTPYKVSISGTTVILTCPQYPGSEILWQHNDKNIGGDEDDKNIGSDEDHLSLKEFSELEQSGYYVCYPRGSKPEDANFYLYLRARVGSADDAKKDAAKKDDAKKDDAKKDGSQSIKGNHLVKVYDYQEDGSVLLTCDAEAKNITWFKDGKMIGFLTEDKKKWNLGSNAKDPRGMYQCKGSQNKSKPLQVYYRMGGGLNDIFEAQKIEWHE
Description: SPR (ProteOn), biotinylated scCD3εγ on NLC chip, DARPin as analyte. Here is the method:
The binding affinities of four purified ankyrin repeat proteins on recombinant human CD3 target were analyzed using a ProteOn instrument (BioRad) and the measurement was performed according standard procedures known to the person skilled in the art. For that, DARPin® protein #7, DARPin® protein #8 and DARPin® protein #9 and DARPin® protein #10 of the invention were subcloned and expressed as described above into derivatives of the pQE30 (Qiagen) expression vector, containing an N-terminal His-tag, CD33 and CD123 binding ankyrin repeat domains, followed by one of the four CD3 specific ankyrin repeat protein constructs.
as §1
Dissociation constants (KD) were calculated from the estimated on- and off-rates using standard procedures known to the person skilled in the art.

Experiment [3] concerns the target T3, human CD3 on primary human pan-T cells (human, UniProt P07766 23-207; P09693 23-182; P04234 22-171; P20963 22-164).
T3 construct: whole, on cells; Native complex on T cells isolated from PBMC; also called CD3 on Pan-T cells
Description: Mirrorball cytometry on primary human pan-T cells, 600 µM HSA. Here is the method:
The determination of CD3 binding was performed with primary human T cells using Mirrorball laser scanning imaging cytometry. Therefore, primary T cells were isolated from human peripheral blood mononuclear cells (PBMCs) using a pan-T cell purification kit (Miltenyi Biotec). A titration of DARPin® protein #7, DARPin® protein #8 and DARPin® protein #9 and DARPin® protein #10, formatted into a trispecific format (including CD33 and CD123 binding ankyrin repeat domains), DARPin® protein #11, DARPin® protein #12, DARPin® protein #13 and DARPin® protein #14 UN tetraspecific format (including an additional ankyrin repeat domain binding specifically to human serum albumin) were incubated with 50′000 pan-T cells per well in presence of 600 μM human serum albumin (to mimic physiological serum concentration) for 30 minutes at 4° C. Two benchmark T-cell engagers, AMG330 and flotetuzumab were applied as controls, targeting CD33 or CD123. After washing, CD3 binding was detected by 1:100-diluted anti-penta-His Alexa Fluor 488 antibody (Qiagen). After 30 min incubation at 4° C., cells were washed and resuspended in Cytofix fixation buffer (BD Biosciences) and counterstained by 5 μM DRAQ5 (Abcam) for 15 min at RT. Median of mean fluorescence intensities of Alexa Fluor 488 binding on far-red counterstained cells were measured by Mirrorball using Cellista software (SPT Labtech) and data was plotted using GraphPad Prism 8.

For experiment [4], the target named is T4, biotinylated extracellular domains of human CD123 (uniprot ID 26951), Fc format (human, UniProt P26951 19-305, biotinylated).
T4 construct: extracellular domain
T4 sequence (looked up): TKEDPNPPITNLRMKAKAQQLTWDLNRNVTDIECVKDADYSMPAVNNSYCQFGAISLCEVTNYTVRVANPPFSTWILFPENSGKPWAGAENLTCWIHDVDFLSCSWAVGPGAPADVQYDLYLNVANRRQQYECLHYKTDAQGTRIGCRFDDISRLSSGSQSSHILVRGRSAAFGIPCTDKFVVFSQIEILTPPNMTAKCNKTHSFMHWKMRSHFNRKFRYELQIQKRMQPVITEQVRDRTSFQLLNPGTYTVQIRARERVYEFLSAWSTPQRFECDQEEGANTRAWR
Nature of the experiment: SPR (ProteOn), biotinylated target on chip. Here is the method: as §1, §2

T3 sequence (P07766 23-207, chain 1 of 4): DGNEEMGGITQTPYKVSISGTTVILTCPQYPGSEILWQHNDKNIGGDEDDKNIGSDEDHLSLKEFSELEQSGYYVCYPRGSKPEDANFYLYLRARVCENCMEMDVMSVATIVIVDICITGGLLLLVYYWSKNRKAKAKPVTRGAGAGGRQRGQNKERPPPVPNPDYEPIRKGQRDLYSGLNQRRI
T3 sequence (P09693 23-182, chain 2 of 4): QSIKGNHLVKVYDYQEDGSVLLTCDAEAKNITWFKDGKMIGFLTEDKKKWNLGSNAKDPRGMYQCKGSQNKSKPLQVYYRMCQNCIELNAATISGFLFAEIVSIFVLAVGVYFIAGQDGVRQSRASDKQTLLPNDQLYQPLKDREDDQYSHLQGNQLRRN
T3 sequence (P04234 22-171, chain 3 of 4): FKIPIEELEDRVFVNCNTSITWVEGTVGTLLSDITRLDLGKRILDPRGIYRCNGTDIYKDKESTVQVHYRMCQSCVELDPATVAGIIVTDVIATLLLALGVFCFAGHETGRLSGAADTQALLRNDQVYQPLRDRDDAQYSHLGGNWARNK
T3 sequence (P20963 22-164, chain 4 of 4): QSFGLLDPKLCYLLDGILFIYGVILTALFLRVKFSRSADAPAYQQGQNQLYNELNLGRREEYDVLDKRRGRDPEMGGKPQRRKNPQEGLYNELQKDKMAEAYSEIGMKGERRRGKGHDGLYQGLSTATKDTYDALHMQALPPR
T1 sequence (P20138 18-259): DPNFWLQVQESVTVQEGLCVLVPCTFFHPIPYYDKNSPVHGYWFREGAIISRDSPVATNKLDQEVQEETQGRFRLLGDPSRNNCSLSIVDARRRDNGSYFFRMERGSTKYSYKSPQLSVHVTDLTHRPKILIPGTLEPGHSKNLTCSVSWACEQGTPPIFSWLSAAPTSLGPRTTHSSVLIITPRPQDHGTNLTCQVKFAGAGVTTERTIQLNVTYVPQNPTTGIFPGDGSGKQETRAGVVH

B1: DARPin® protein #25 (designed binder)
chain: DLGDKLLLAATSGQDDEVRILLAAGADVNAKDYDGDTPLHLAADEGHLEIVEVLLKAGADVNAKDYSGSTPLHAAAAYGHLEIVEVLLKAGADVNAQDVFGYTPADLAAYVGHEDIAEVLQKAAGSPTPTPTTPTPTPTTPTPTPTGSDLGQKLLEAAWAGQDDEVRILLAAGADVNAKNSRGWTPLHTAAQTGHLEIFEVLLKAGADVNAKNDKRVTPLHLAAALGHLEIVEVLLKAGADVNARDSWGTTPADLAAKYGHGDIAEVLQKLN
notes: CD33-CD3; not shown: N-terminal His-tag
As for B1, in experiment [1], the Kd came out at 7.3 nM, the koff was determined as 0.0304 s⁻¹ and the kon stood at 4.2e+06 M⁻¹ s⁻¹.

B2: DARPin® protein #8 (designed binder)
chain: DLGKKLLEAARAGQDDEVRILMANGADVNALDWLGHTPLHLAAYEGHLEIVEVLLKNGADVNAIDDNNGFTPLHLAAIDGHLEIVEVLLKNGADVNAQDKFGKTAFDISIDNGNEDLAEILQKAAGSPTPTPTTPTPTPTTPTPTPTGSDLGDKLLLAATSGQDDEVRILLAAGADVNAKDYDGDTPLHLAADEGHLEIVEVLLKAGADVNAKDYSGSTPLHAAAAYGHLEIVEVLLKAGADVNAQDVFGYTPADLAAYVGHEDIAEVLQKAAGSPTPTPTTPTPTPTTPTPTPTGSDLGQKLLEAAWAGQDDEVRELLKAGADVNAKNSRGWTPLHTAAQTGHLEIFEVLLKAGADVNAKDDKGVTPLHLAAALGHLEIVEVLLKAGADVNAQDSWGTTPADLAAKYGHEDIAEVLQKAA
notes: CD123-CD33-CD3 ankyrin repeat protein, no half-life extension; also called DARPin® #8; not shown: N-terminal His-tag
In experiment [2], B2 displayed a Kd of roughly 35 nM, a koff of 0.0015 s⁻¹ and a kon of roughly 49000 M⁻¹ s⁻¹. This molecule also returned an EC50 in experiment [3] of 250 to 400 nM.

B3: DARPin® protein #9 (designed binder)
chain: DLGKKLLEAARAGQDDEVRILMANGADVNALDWLGHTPLHLAAYEGHLEIVEVLLKNGADVNAIDDNNGFTPLHLAAIDGHLEIVEVLLKNGADVNAQDKFGKTAFDISIDNGNEDLAEILQKAAGSPTPTPTTPTPTPTTPTPTPTGSDLGDKLLLAATSGQDDEVRILLAAGADVNAKDYDGDTPLHLAADEGHLEIVEVLLKAGADVNAKDYSGSTPLHAAAAYGHLEIVEVLLKAGADVNAQDVFGYTPADLAAYVGHEDIAEVLQKAAGSPTPTPTTPTPTPTTPTPTPTGSDLGQKLLEAAWAGQDDEVRELLKAGADVNAKNSRGWTPLHTAAQTGHLEIFEVLLKAGADVNAKNDKRVTPLHLAAALGHLEIVEVLLKAGADVNARDSWGTTPADLAAKYGHQDIAEVLQKAA
notes: CD123-CD33-CD3 ankyrin repeat protein, no half-life extension; also called DARPin® #9; not shown: N-terminal His-tag
Regarding B3, in experiment [2], the Kd was roughly 15 nM, the koff amounted to 0.0013 s⁻¹ and the kon is roughly 89000 M⁻¹ s⁻¹. In addition, in experiment [3], the EC50 lay within 50 to 100 nM.

B4: DARPin® protein #10 (designed binder)
chain: DLGKKLLEAARAGQDDEVRILMANGADVNALDWLGHTPLHLAAYEGHLEIVEVLLKNGADVNAIDDNNGFTPLHLAAIDGHLEIVEVLLKNGADVNAQDKFGKTAFDISIDNGNEDLAEILQKAAGSPTPTPTTPTPTPTTPTPTPTGSDLGDKLLLAATSGQDDEVRILLAAGADVNAKDYDGDTPLHLAADEGHLEIVEVLLKAGADVNAKDYSGSTPLHAAAAYGHLEIVEVLLKAGADVNAQDVFGYTPADLAAYVGHEDIAEVLQKAAGSPTPTPTTPTPTPTTPTPTPTGSDLGQKLLEAAWAGQLDEVRILLKAGADVNAKNSRGWTPLHTAAQTGHLEIFEVLLKAGADVNAKTNKRVTPLHLAAALGHLEIVEVLLKAGADVNARDTWGTTPADLAAKYGHRDIAEVLQKAA
notes: CD123-CD33-CD3 ankyrin repeat protein, no half-life extension; also called DARPin® #10; not shown: N-terminal His-tag
In experiment [2], B4 registered a Kd of roughly 6 nM, a koff of 0.00041 s⁻¹ and a kon of roughly 82000 M⁻¹ s⁻¹. The EC50 in experiment [3] is 5 to 15 nM.

B5: DARPin® protein #26 (designed binder)
chain: DLGKKLLEAARAGQDDEVRILMANGADVNALDWLGHTPLHLAAYEGHLEIVEVLLKNGADVNAIDDNNGFTPLHLAAIDGHLEIVEVLLKNGADVNAQDKFGKTAFDISIDNGNEDLAEILQKAAGSPTPTPTTPTPTPTTPTPTPTGSDLGQKLLEAAWAGQDDEVRILLAAGADVNAKNSRGWTPLHTAAQTGHLEIFEVLLKAGADVNAKNDKRVTPLHLAAALGHLEIVEVLLKAGADVNARDSWGTTPADLAAKYGHGDIAEVLQKLN
notes: not shown: N-terminal His-tag
Regarding B5, in experiment [4], the Kd stood at 9.5 nM, the koff stood at 0.017 s⁻¹ and the kon turned out to be 1.79e+06 M⁻¹ s⁻¹.

In general, Kd refers to the equilibrium constant for the complex coming apart. For orientation: koff means the rate constant with which the complex falls apart. The low end stands for a long-lived complex, the high end for a short-lived complex. Usually kon stands for the rate constant with which the complex forms. High values mean faster complex formation, low ones slower complex formation. By EC50 is commonly meant the midpoint of the concentration-response curve.

Values taken from patent publication US20240254229A1 (Molecular Partners, published 2024).
